Source: patent US20240409935

T1: GFP-PACT, O75569
T1 chain: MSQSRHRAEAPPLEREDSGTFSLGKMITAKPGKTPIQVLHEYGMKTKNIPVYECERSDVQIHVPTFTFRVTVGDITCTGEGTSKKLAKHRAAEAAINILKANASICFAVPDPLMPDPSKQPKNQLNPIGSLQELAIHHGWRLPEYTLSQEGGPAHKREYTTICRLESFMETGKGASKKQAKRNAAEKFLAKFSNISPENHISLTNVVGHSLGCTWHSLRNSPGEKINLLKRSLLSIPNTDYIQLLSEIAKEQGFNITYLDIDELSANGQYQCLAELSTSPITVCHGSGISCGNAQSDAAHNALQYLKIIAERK

T2: endogenous PACT, O75569
T2 chain: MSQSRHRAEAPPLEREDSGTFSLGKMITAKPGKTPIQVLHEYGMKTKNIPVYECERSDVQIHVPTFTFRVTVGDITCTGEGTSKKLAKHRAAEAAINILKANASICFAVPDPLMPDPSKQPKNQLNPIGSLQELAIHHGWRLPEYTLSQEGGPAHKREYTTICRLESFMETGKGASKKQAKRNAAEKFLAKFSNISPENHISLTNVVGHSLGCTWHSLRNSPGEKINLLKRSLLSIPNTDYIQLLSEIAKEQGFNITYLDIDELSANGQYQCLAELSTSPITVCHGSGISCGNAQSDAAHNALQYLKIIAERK


Key:
[1] = target: T1, GFP-PACT, O75569
[2] = target: T2, endogenous PACT, O75569

Row | Protein | PKR phosphorylation [1] | PKR phosphorylation [2]
1 | endogenous PKR (protein) AGDLSAGFFMEELNTYRQKQGVVLKYQELPNSGPPHDRRFTFQVIIDGREFPEGEGRSKKEAKNAAAKLAVEILNKEKKAVSPLLLTTTNSSEGLSMGNYIGLINRIAQKKRLTVNYEQCASGVHGPEGFHYKCKMGQKEYSIGTGSTKQEAKQLAAKLAYLQILSEETSVKSDYLSSGSFATTCESQSNSLVTSTLASESSSEGDFSADTSEINSNSDSLNSSSLLMNGLRNNQRKAKRSLAPRFDLPDMKETKYTVDKRFGMDFKEIELIGSGGFGQVFKAKHRIDGKTYVIKRVKYNNEKAEREVKALAKLDHVNIVHYNGCWDGFDYDPETSDDSLESSDYDPENSKNSSRSKTKCLFIQMEFCDKGTLEQWIEKRRGEKLDKVLALELFEQITKGVDYIHSKKLIHRDLKPSNIFLVDTKQVKIGDFGLVTSLKNDGKRTRSKGTLRYMSPEQISSQDYGKEVDLYALGLILAELLHVCDTAFETSKFFTDLRDGIISDIFDKKEKTLLQKLLSKKPEDRPNTSEILRTLTVWKKSPEKNERHTC | this was accompanied by an increase in PKR phosphorylation during lysosomal damage | –
2 | FLAG-PKR (protein) MAGDLSAGFFMEELNTYRQKQGVVLKYQELPNSGPPHDRRFTFQVIIDGREFPEGEGRSKKEAKNAAAKLAVEILNKEKKAVSPLLLTTTNSSEGLSMGNYIGLINRIAQKKRLTVNYEQCASGVHGPEGFHYKCKMGQKEYSIGTGSTKQEAKQLAAKLAYLQILSEETSVKSDYLSSGSFATTCESQSNSLVTSTLASESSSEGDFSADTSEINSNSDSLNSSSLLMNGLRNNQRKAKRSLAPRFDLPDMKETKYTVDKRFGMDFKEIELIGSGGFGQVFKAKHRIDGKTYVIKRVKYNNEKAEREVKALAKLDHVNIVHYNGCWDGFDYDPETSDDSLESSDYDPENSKNSSRSKTKCLFIQMEFCDKGTLEQWIEKRRGEKLDKVLALELFEQITKGVDYIHSKKLIHRDLKPSNIFLVDTKQVKIGDFGLVTSLKNDGKRTRSKGTLRYMSPEQISSQDYGKEVDLYALGLILAELLHVCDTAFETSKFFTDLRDGIISDIFDKKEKTLLQKLLSKKPEDRPNTSEILRTLTVWKKSPEKNERHTC | – | increased PKR phosphorylation under the same conditions
